# ± gives the uncertainty stated by the source.
# Assay: amyloid nucleation score (Sup35N fusion, yeast selection) (log enrichment); library NNK1; higher = more nucleation; inactive = no reads after selection
# Method in brief: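 Nucleation score: DiMSum log enrichment of output over input reads, centred on the mode score of non-aggregating sequences. Only sequences with at least 100 input reads were kept. Reads came from Illumina sequencing of plasmid inserts before and after 7 days of growth at 30°C without adenine and uracil, in psi-negative yeast expressing Sup35N fused to peptides of 20 random codons after 24 hours of induction with 100 μM copper sulfate.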
row,Substance,amyloid nucleation score
1,WKYIMHLSRFYVFPCSTERG,0.112 ± 0.87
2,VSHSGCKSF,-0.434 ± 0.47
3,ESKVSGIVIFGGVEIAFYRG,5.22 ± 0.1
4,HDQSYSHSGSNGFRQKNEAN,1.32 ± 0.5
5,RTVPTRWACVLVSGVWRYGA,0.504 ± 0.46
6,MYRDDAGFEGMF,1.19 ± 0.61
7,RNLLVEFSLVSKWGLSSSWR,0.557 ± 0.51
8,HQEAGLGSMVQTNAHATAKP,-0.081 ± 1
9,STLWKASVFKFCYICLYQQW,0.35 ± 0.95
10,YVYNMFRL,2.88 ± 0.14
11,ADLLVVGVPSFNFWSSKVFV,inactive
12,SRGVAALYSSNI,-0.278 ± 0.35
13,APCQYSFVSVSYSTVNWLMT,8.933 ± 0.071
14,YGFCGLMHSNSIHYSNMQSR,0.685 ± 0.48
15,PMLFGVGRSFE,-0.377 ± 0.27
16,RGMSTNSRECHNMCFQVGV,0.228 ± 0.49
17,MSFDGVEYRTCNVYVSVTWG,-0.133 ± 0.77
18,INQLRITWLD,2.46 ± 0.12
19,WDWVYGKFLR,0.736 ± 0.26
20,CIISNVCTRVGGKMGSYGYS,0.133 ± 0.4
21,YASTPWYYMCWFIWAYCFSS,inactive
22,VRDGDTMILGVYRNIWGTNV,0.429 ± 0.24
23,KNHYYFA,-0.203 ± 0.38

row,Substance,amyloid nucleation score
1,GVDLVSAIYGTSGHTVWMAF,-0.054 ± 0.52
2,NPGPYRARHSSDSWRGNYNE,-0.366 ± 0.58
3,KLPRTCAPLYHMLTHGVGHR,-0.075 ± 0.72
4,DELGAMMRIFSFSCNP,-0.147 ± 1.1
5,AAPLNMCLANTGFAQFLTSI,-0.618 ± 1.2
6,TSPYAFKRWFSLGLYDLSRF,inactive
7,IWLDCIGRYSGVYRHVINDV,-0.863 ± 0.37
8,TLKAVHTLTTD,2.4 ± 0.23
9,LSDRIAYVVRGC,0.137 ± 0.43
10,QRLCNQWMSDKLQY,1.84 ± 0.67
11,TFQNVLLLGSLVWNNNKS,0.24 ± 0.55
12,MITSDKIGSQWLQCRLKVAC,-0.43 ± 0.53
13,WVILVNDGVNVCCFSVRVWA,-0.903 ± 2.4
14,REPACYSKVTLADKYRLVSE,1.26 ± 0.74
15,DLHLTNVSTRARPRLGLAAR,0.705 ± 0.56
16,MHITDGCGG,-0.456 ± 0.3
17,SFSWLSRMTR,2 ± 0.1
18,TFHAHTLWQGAQVIRQSETR,0.053 ± 0.47
19,IATYCYLFSCWFIYVLT,0.992 ± 0.84
20,SASYNFTSCFKFLRRKIVIK,0.196 ± 0.24
21,INLNRHGSLE,1.6 ± 0.39
22,QLETTLFGNAEACLFSSKGR,0.522 ± 0.49
23,NVFILMCITKRFCNWLNISS,-0.773 ± 1.5

row,Substance,amyloid nucleation score
1,FFIRIVCLWG,0.659 ± 0.42
2,VSYLEGVRWLCIIYTGNRSW,inactive
3,MSGAESYLHLDLCRVTGIAS,-0.24 ± 0.35
4,GYNFKRVSNFSVYGLVSYSN,0.046 ± 1.6
5,GGYGLYCDHRYVTTTWWHSS,0.926 ± 0.66
6,GEFAYSMVQGHYRIMLMSLK,1.49 ± 0.68
7,HLMDSSYGSGSGCSTKTSCV,0.061 ± 0.28
8,CFTKIFDDYSWCFGAGANQS,0.348 ± 0.28
9,IEWFVLGDYMCTAQSVCGLV,-1.26 ± 1.3
10,DARFLSWNANMID,0.31 ± 0.19
11,TRYPLNISEVFRFDFPNRIP,-1.32 ± 2.4
12,CLNGGNFYRSLTRAKTNKNF,-0.258 ± 1.1
13,SLPNILLSQPMFRRISSMLQ,1.17 ± 0.62
14,SFMAVSKGFMTIISSYYLC,-0.662 ± 0.32
15,NFMEYYKIRVMCWANR,0.616 ± 0.29
16,DWAGMCFANSIHMDMLDRVL,0.336 ± 0.4
17,VWEQLIAE,-0.26 ± 0.84
18,FFYMDKLLCAQSPVRIFR,0.837 ± 0.84
19,LKFSVFVKASPCTIRRS,-0.218 ± 0.5
20,SWFSRMGTCYDFNSKWSCLL,0.654 ± 0.66
21,MIHEVTLY,0.359 ± 0.41
22,MSALARVMLSMRYRIGT,-0.395 ± 1.1
23,MASLDGFLFNCWLRRLGFRA,-0.397 ± 0.4
